This series can be described thus: self-splicing fitness, log relative to wild type (ln ratio); higher = more splicing; Tetrahymena group I intron in knt gene, E. coli kanamycin selection, DiMSum; sequences stand for … in CUCUCU…GGAGGGAAAAGUUAUCAGGCAUGCACCUGGUAGCUAGUCUUUAAACCAAUAGAUUGCAUCGGUUUAAAAGGCAAGACCGUCAAAUUGCGGGAAAGGGGUCAACAGCCGUUCAGUACCAAGUCUCAGGGGAAACUUUGAGAUGGCCUUGCAAAGGGUAUGGUAAUAAGCUGACGGACAUGGUCCUAACCACGCAGCCAAGUCCUAAGUCAACAGAUCUUCUGUUGAUAUGGAUGCAGUUCACAGACUAAAUGUCGGUCGGGGAAGAUGUAUUCUUCUCAUAAGAUAUAGUCGGACCUCUCCUUAAUGGGAGCUAGCGGAUGAAGUGAUGCAACACUGGAGCCGCUGGGAACUAAUUUGUAUGCGAAAGUAUAUUGAUUAGUUUUGGAGUACUCGUGGUCG
Summed up: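 Library with all eight P1ex-region intron nucleotides randomised, intron inside the knt kanamycin-resistance gene on pET-22b(+), in E. coli BL21(DE3). Cells grew overnight at 37°C or 30°C on LB agar with or without 25 μg/mL kanamycin (plus 100 μg/mL carbenicillin, 50 μM IPTG, 0.2% rhamnose), in six replicate transformations. Pooled colonies were amplicon-sequenced on Illumina HiSeq 2500. DiMSum fitness is the error-weighted combination of wild-type-normalised replicate fold changes, kanamycin versus none.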

± gives the uncertainty stated by the source.

Turning to ACGCAGCAAUAUUACGAUAG, the “self-splicing fitness (ln)” value was -4.2 ± 0.21 (30 °C) and -2.65 ± 0.19 (37 °C).
In the same order, the values of CUCGAGCAAUAUUACGAUAG are -1.11 ± 0.15 and -0.333 ± 0.15.
Taken in the same sequence, the figures for GGCUAGCAAUAUUACGCGUA were -0.142 ± 0.14 and 0.00477 ± 0.15.
Taken in the same sequence, the figures for CUAUAGCAAUAUUACGGCAU were -3.11 ± 0.25 and -2.37 ± 0.24.
As for UGGAAGCAAUAUUACGAUGG, the “self-splicing fitness (ln)” value was -2.38 ± 0.14 (30 °C) and -0.0527 ± 0.12 (37 °C).
Consider ACUGAGCAAUAUUACGGUUC, for which the “self-splicing fitness (ln)” value is -3.46 ± 0.19 (30 °C) and -2.08 ± 0.21 (37 °C).
Taken in the same sequence, the figures for GUCAAGCAAUAUUACGCCUU were -1.61 ± 0.068 and -0.671 ± 0.097.
Taken in the same sequence, the figures for AUGCAGCAAUAUUACGUGCG were -0.943 ± 0.061 and -0.294 ± 0.076.
In the same order, the values of CGUAAGCAAUAUUACGCUCA are -1.2 ± 0.2 and -0.106 ± 0.18.
Consider CGAUAGCAAUAUUACGAUAA, for which the “self-splicing fitness (ln)” value reads like this: (30 °C) -3.37 ± 0.27; (37 °C) -2.2 ± 0.35.
Taken in the same sequence, the figures for CAUGAGCAAUAUUACGAUUA were -3.08 ± 0.24 and -2.02 ± 0.21.
In the case of ACAUAGCAAUAUUACGUUAC, the “self-splicing fitness (ln)” value (30 °C) is -1.52 ± 0.22.
For GUACAGCAAUAUUACGAGUC, the “self-splicing fitness (ln)” value is -1.88 ± 0.085 (30 °C) and -1.53 ± 0.096 (37 °C).
For AUAUAGCAAUAUUACGUGGC, the “self-splicing fitness (ln)” value (37 °C) was -2.67 ± 0.31.
With UAUUAGCAAUAUUACGACAU, the “self-splicing fitness (ln)” value (30 °C) is -1.63 ± 0.017 and the “self-splicing fitness (ln)” value (37 °C) is -0.705 ± 0.035.
In the same order, the values of ACCUAGCAAUAUUACGCGUU are -2.76 ± 0.099 and -0.77 ± 0.085.
In the same order, the values of UGCGAGCAAUAUUACGUCCG are -3.31 ± 0.4 and -0.194 ± 0.31.
In the case of CACAAGCAAUAUUACGUGAA, the “self-splicing fitness (ln)” value by setting is: (30 °C) -4.27 ± 0.25; (37 °C) -2.39 ± 0.21.
Taken in the same sequence, the figures for GUAUAGCAAUAUUACGUUUG were -4.31 ± 0.46 and -2.11 ± 0.2.
As to GAACAGCAAUAUUACGAAUU, the “self-splicing fitness (ln)” value was -1.15 ± 0.088 (30 °C) and -0.293 ± 0.1 (37 °C).
Taken in the same sequence, the figures for CUGGAGCAAUAUUACGGAUA were -3.57 ± 0.48 and -1.35 ± 0.25.
In the same order, the values of ACAAAGCAAUAUUACGGUUG are -2.44 ± 0.07 and -1.89 ± 0.09.
For CUGAAGCAAUAUUACGUUGA, the “self-splicing fitness (ln)” value (30 °C) was -4.04 ± 0.18 and the “self-splicing fitness (ln)” value (37 °C) was -2.66 ± 0.21.
Taken in the same sequence, the figures for AGAGAGCAAUAUUACGCUGC were -2.3 ± 0.23 and -2.63 ± 0.34.
Taken in the same sequence, the figures for GUGUAGCAAUAUUACGUCGG were -2.7 ± 0.24 and -2.73 ± 0.33.
Taken in the same sequence, the figures for AAUUAGCAAUAUUACGAACA were -0.672 ± 0.16 and -0.784 ± 0.18.
For UAGGAGCAAUAUUACGAGCA, the “self-splicing fitness (ln)” value (30 °C) is -2.38 ± 0.17 and the “self-splicing fitness (ln)” value (37 °C) is -1.58 ± 0.15.
In the case of UCAAAGCAAUAUUACGGGCC, under “30 °C”, the “self-splicing fitness (ln)” value is -3.12 ± 0.4.
For UACCAGCAAUAUUACGGUAA, the “self-splicing fitness (ln)” value is -1.77 ± 0.076 (30 °C) and -0.857 ± 0.074 (37 °C).
For the sequence ACGGAGCAAUAUUACGUUUG, the “self-splicing fitness (ln)” value (30 °C) is -2.3 ± 0.12 and the “self-splicing fitness (ln)” value (37 °C) was -2.31 ± 0.19.
In the same order, the values of ACGAAGCAAUAUUACGGUCA are -1.35 ± 0.14 and -0.053 ± 0.13.
Turning to AUACAGCAAUAUUACGGACA, the “self-splicing fitness (ln)” value was -1.55 ± 0.13 (30 °C) and -0.413 ± 0.13 (37 °C).
In the same order, the values of AUCCAGCAAUAUUACGGGAU are -3.75 ± 0.28 and -2.9 ± 0.36.
In the same order, the values of UGAUAGCAAUAUUACGCAUA are -2.13 ± 0.19 and -0.977 ± 0.16.
For the sequence CAGCAGCAAUAUUACGGCCA, the “self-splicing fitness (ln)” value (30 °C) is -0.605 ± 0.091 and the “self-splicing fitness (ln)” value (37 °C) is -0.22 ± 0.11.
Taken in the same sequence, the figures for UAUUAGCAAUAUUACGUAUU were -3.62 ± 0.17 and -1.25 ± 0.14.
Turning to CCGUAGCAAUAUUACGCUCA, the “self-splicing fitness (ln)” value (37 °C) was -2.36 ± 0.26.
Same read-out and setting: the result for UGGUAGCAAUAUUACGGAGA reads -1.24 ± 0.2.
Turning to UGAGAGCAAUAUUACGCCGU, under “30 °C”, the “self-splicing fitness (ln)” value is -3.58 ± 0.47.
With AUGUAGCAAUAUUACGGGGC, the “self-splicing fitness (ln)” value by setting is: (30 °C) -4.82 ± 0.34; (37 °C) -2.87 ± 0.19.

The values are drawn from the supplement of paper PMC7877785.
